Results taken from publication PMC12790805, “The Structure of the Drp1 Lattice on Membrane” (Journal of molecular biology, 2025).
Where “and” joins values, the source holds several entries; their conditions need not be identical. Equal entries are not always repeated.

Key:
[1] = target: Drp1 with deletion of the MoRF-1 sequence (human) (UniProt O00429); test: mass photometry; Drp1 in solution; molecular weight determined by mass photometry; conditions not given
[2] = target: the molecule itself; test: as above

## Drp1 with deletion of the MoRF-1 sequence (from UniProt O00429-4 1-699) (enzyme)
[1]
  stoichiometry N: 2

B1: dynamin-related protein 1 (Drp1) isoform 3, full-length human (enzyme, UniProt O00429-4 1-699, looked up)
chain: MEALIPVINKLQDVFNTVGADIIQLPQIVVVGTQSSGKSSVLESLVGRDLLPRGTGIVTRRPLILQLVHVSQEDKRKTTGEENGVEAEEWGKFLHTKNKLYTDFDEIRQEIENETERISGNNKGVSPEPIHLKIFSPNVVNLTLVDLPGMTKVPVGDQPKDIELQIRELILRFISNPNSIILAVTAANTDMATSEALKISREVDPDGRRTLAVITKLDLMDAGTDAMDVLMGRVIPVKLGIIGVVNRSQLDINNKKSVTDSIRDEYAFLQKKYPSLANRNGTKYLARTLNRLLMHHIRDCLPELKTRINVLAAQYQSLLNSYGEPVDDKSATLLQLITKFATEYCNTIEGTAKYIETSELCGGARICYIFHETFGRTLESVDPLGGLNTIDILTAIRNATGPRPALFVPEVSFELLVKRQIKRLEEPSLRCVELVHEEMQRIIQHCSNYSTQELLRFPKLHDAIVEVVTCLLRKRLPVTNEMVHNLVAIELAYINTKHPDFADACGLMNNNIEEQRRNRLARELPSAVSRDKVASGGGGVGDGVQEPTTGNWRGMLKTSKAEELLAEEKSKPIPIMPASPQKGHAVNLLDVPVPVARKLSAREQRDCEVIERLIKSYFLIVRKNIQDSVPKAVMHFLVNHVKDTLQSELVGQLYKSSLLDDLLTESEDMAQRRKEAADMLKALQGASQIIAEIRETHLW
notes: human dynamin-related protein 1 (Drp1), isoform 3, UniProt O00429-4, full length; CBP tag removed with PreScission protease; also called Drp1-3; WT; source: E. coli BL21 (DE3) Star, purified (calmodulin agarose, SEC)
[2]
  stoichiometry N: 2 and 4 and 6
